For one molecule, Kd results are on record in paper PMC9142731 (2022).

One may read the Kd as the constant that tells how readily two partners part at equilibrium.

This assay has as its target SARS-CoV nucleocapsid protein, recombinant (SARS-CoV, UniProt P59595 1-422). Briefly: SPR. On the technique in general: In SPR one partner is held on a chip, and binding of the other changes the refractive index at the surface.

SARS-CoV nucleocapsid protein, recombinant, sequence (P59595 whole entry): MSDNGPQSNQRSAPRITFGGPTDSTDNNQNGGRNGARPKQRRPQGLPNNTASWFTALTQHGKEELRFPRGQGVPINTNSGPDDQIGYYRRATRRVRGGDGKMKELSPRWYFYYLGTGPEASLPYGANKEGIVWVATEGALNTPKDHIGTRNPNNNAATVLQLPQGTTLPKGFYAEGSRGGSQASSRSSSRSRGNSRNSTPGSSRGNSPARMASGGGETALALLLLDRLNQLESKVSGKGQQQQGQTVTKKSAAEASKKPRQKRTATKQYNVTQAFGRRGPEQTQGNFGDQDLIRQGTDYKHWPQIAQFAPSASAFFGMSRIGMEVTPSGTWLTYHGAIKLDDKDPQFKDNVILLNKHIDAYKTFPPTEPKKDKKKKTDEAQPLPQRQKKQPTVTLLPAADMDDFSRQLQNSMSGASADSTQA

B1: P301-F7 (antibody, V domains shown)
VH: QLQLQESGPGLVKPSETLSLTCTVSGGSISSTSYYWGWIRQPPGKGLEWIGSIYYSGSTYYNPSLKSRVTISVDTSKNQFSLKLSSVTAADTAVYYCARFSLYCSSTSCYENWFDPWGQGTLVTVSS
VL: QSVLTQPPSVSAAPGQKVTISCSGSSSNIGNNYVSWYQQLPGTAPKLLIYDNNKRPSGIPDRFSGSKSGTSATLGITGLQTGDEADYYCGTWDSSLSAGQVVFGGGTKLTVL
Turning to B1, the Kd came out at 0.0334 µM.
